The assay has as its target α5β1 integrin, P08648. The assay is described as follows: competition ELISA, α5β1-coated plate, inhibition of trimeric spike binding. Background: An ELISA detects its analyte on a solid surface through an enzyme-linked reagent.

Sequence of α5β1 integrin, P08648 (P08648 42-995, chain 1 of 2): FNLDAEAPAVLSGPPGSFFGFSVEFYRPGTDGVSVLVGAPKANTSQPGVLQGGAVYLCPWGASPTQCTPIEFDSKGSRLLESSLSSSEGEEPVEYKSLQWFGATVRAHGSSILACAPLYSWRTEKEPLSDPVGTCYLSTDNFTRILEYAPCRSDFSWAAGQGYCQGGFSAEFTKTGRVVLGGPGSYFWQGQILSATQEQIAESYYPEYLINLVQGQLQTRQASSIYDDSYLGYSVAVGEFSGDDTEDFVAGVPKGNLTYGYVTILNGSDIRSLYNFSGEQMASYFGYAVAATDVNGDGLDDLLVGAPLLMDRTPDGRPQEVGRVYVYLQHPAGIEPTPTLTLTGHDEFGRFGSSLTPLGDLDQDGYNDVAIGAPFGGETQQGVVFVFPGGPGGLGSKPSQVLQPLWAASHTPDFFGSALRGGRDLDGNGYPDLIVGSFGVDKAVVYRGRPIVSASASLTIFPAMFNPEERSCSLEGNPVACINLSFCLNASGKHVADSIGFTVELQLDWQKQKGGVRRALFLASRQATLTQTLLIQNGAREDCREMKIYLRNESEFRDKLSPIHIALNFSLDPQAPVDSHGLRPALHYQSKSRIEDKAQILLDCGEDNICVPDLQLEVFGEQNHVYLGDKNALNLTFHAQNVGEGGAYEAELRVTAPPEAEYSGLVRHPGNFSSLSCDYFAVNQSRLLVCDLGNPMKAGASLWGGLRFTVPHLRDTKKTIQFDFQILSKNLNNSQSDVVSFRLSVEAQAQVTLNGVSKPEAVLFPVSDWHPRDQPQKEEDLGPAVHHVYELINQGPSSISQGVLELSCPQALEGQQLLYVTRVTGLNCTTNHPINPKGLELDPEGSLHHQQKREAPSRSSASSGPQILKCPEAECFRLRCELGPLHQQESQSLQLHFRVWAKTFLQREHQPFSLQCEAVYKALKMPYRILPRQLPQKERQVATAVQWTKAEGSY
Sequence of α5β1 integrin, P08648 (P05556 21-728, chain 2 of 2, further chain): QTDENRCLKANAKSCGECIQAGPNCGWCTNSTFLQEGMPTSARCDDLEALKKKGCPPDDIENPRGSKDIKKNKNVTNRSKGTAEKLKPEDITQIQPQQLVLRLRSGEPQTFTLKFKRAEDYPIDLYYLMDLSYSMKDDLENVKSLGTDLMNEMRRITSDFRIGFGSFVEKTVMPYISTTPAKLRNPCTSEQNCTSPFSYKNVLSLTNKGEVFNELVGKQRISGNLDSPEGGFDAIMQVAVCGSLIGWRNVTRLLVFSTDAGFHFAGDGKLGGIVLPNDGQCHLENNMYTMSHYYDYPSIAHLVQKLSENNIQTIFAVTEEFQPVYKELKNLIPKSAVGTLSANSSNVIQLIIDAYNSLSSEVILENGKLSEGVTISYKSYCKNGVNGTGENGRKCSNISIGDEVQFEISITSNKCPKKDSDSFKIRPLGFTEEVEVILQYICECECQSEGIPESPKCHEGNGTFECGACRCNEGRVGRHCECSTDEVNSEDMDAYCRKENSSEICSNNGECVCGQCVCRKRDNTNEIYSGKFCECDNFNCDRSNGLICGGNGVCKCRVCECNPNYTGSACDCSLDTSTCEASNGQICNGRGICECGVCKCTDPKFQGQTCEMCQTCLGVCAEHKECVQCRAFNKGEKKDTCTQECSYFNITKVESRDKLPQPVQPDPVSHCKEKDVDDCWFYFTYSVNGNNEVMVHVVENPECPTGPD

For PHSCN (modifications not checked) [ATN-161], the most effective dose tested was determined as 100 nM.

Source of the values: US20230146939A1, “TREATMENT FOR HUMAN CORONAVIRUS INFECTION” (THE ADMINISTRATORS OF THE TULANE EDUCATIONAL FUND, priority 2020, published 2023).
